In US5804604, “Tat-derived transport polypeptides and fusion proteins” (Biogen, Inc., dated 1998):
Changes are numbered by the printed parent chain.

B1: TxHE2CCSS (tat37-72 chemically cross-linked to E2.123CCSS) (other)
chain: MVPDTGNPCHTTKLLHRDSVDSAPILTAFNSSHKGRINCNSNTTPIVHLKGDANTLKSLRYRFKKHSTLYTAVSSTWHWTGHNVKHKSAIVTLTYDSEWQRDQFLSQVKIPKTITVSTGFMSI
peptide: CFITKALGISYGRKKRRQRRRPPQGSQTHQVSLSKQ
modifications: cysteine cross-linked through bismaleimidohexane (BMH) to tat37-72; 1 transport molecule per E2 repressor homodimer; cysteine coupled to bismaleimidohexane (BMH)
B2: HE2.123 (unconjugated E2.123 repressor protein) (other)
chain: B1 chain with S58C, S67C
B3: JB106 (other)
chain: MYGRKKRRQRRRPPDTGNPCHTTKLLHRDSVDSAPILTAFNSSHKGRINCNSNTTPIVHLKGDANTLKCLRYRFKKHCTLYTAVSSTWHWTGHNVKHKSAIVTLTYDSEWQRDQFLSQVKIPKTITVSTGFMSI

Target: full-length HPV-16 E2 protein (E2 transactivator expressed from plasmid pAHE2) (human papillomavirus strain 16 (HPV-16), UniProt P03120)
Assay: cell-based or functional assay

Compared with B1, B2 is lower in “% repression (E2 repression assay, COS7 cells, without chloroquine)” value: 69.4 % repression for the first, 0.3 % repression for the second.

In the case of B3, the “% repression (E2 repression assay, COS7 cells, without chloroquine)” value is reported as 94.3 % repression.
